Test results from US20220127355A1 (INTEGRAL MOLECULAR, published 2022).
Positions count from the first letter of the chain named.

Tests used:
Claudin 3 = biological target: T1, Claudin 3 (UniProt O15551 1-220); experiment: flow cytometry, HEK-293T cells transiently transfected with the indicated claudin; pUC19 = empty vector control
T1 construct: also called CLDN3
T1 sequence (looked up): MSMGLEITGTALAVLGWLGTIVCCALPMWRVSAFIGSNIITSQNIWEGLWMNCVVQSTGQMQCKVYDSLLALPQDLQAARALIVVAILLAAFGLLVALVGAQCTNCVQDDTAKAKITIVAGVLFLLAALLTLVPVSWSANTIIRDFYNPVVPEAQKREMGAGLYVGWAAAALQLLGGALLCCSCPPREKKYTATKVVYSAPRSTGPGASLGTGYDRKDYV
Procedure: FIG. 2 illustrates the results of a binding assay showing that Claudin 6 MAbs bind to human Claudin 6 preferentially over other Claudin proteins. Human embryonic kidney 293T (HEK-293T) cells were transiently transfected with DNA for the indicated Claudin protein or empty vector along with GFP (pUC) for 22 hours.

P74A = biological target: T2, P74A; experiment: Shotgun Mutagenesis epitope mapping; mean (range), % of wild-type Claudin 6
T2 construct: Shotgun Mutagenesis mutant; also called Claudin 6 P74A
T2 chain: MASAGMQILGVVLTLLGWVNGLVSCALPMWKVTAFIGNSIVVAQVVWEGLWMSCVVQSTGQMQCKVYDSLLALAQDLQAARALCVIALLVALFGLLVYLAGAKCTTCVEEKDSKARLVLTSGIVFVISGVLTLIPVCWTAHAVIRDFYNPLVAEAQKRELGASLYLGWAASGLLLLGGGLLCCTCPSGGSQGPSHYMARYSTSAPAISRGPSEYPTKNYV

D146A = biological target: T3, D146A; experiment: as above
T3 construct: Shotgun Mutagenesis mutant; also called Claudin 6 D146A
T3 chain: T2 chain with A74P, D146A

A153S = biological target: T4, A153S; experiment: as above
T4 construct: Shotgun Mutagenesis mutant; also called Claudin 6 A153S
T4 chain: T2 chain with A74P, A153S

Q156A = biological target: T5, Q156A; experiment: as above
T5 construct: Shotgun Mutagenesis mutant; also called Claudin 6 Q156A
T5 chain: T2 chain with A74P, Q156A

Y67A = biological target: T6, Y67A; experiment: as above
T6 construct: Shotgun Mutagenesis mutant; also called Claudin 6 Y67A
T6 chain: T2 chain with Y67A, A74P

V152A = biological target: T7, V152A; experiment: as above
T7 construct: Shotgun Mutagenesis mutant; also called Claudin 6 V152A
T7 chain: T2 chain with A74P, V152A

Q78A = biological target: T8, Q78A; experiment: as above
T8 construct: Shotgun Mutagenesis mutant; also called Claudin 6 Q78A
T8 chain: T2 chain with A74P, Q78A

N38A = biological target: T9, N38A; experiment: as above
T9 construct: Shotgun Mutagenesis mutant; also called Claudin 6 N38A
T9 chain: T2 chain with N38A, A74P

E48A = biological target: T10, E48A; experiment: as above
T10 construct: Shotgun Mutagenesis mutant; also called Claudin 6 E48A
T10 chain: T2 chain with E48A, A74P

B1: IM171 (antibody, V domains shown)
VH: AVTLDESGGGLQTPGGALSLVCKASGFDFSSYAMNWVRQAPGKGLEWVAGIGSTGSSTGYGPAVKGRATISRDNGQSTLRLQLNNLRAEDTAIYYCAKSVGNGNSWSGYIATSIDAWGHGTEVIVSS
VL: ALTQPSSVSANLGGTVKLTCSGGSSGYGWYQQKSPGSAPVTVIYSNDKRPSDIPSRFSGSLSGSTGTLTITGVQADDEAVYFCGSTDNSYVGIFGAGTTLTVL
notes: Detected with anti-human IgG Fc secondary; also called LM171
Claudin 3
  binding result: no binding (tested: log [mAb] about -7.2 M)
P74A
  Binding Reactivity (% WT): 37.5 % WT
D146A
  Binding Reactivity (% WT): 57.6 % WT
A153S
  Binding Reactivity (% WT): 24 % WT
Q156A
  Binding Reactivity (% WT): 102 % WT
Y67A
  Binding Reactivity (% WT): 97.2 % WT
V152A
  Binding Reactivity (% WT): 129 % WT
Q78A
  Binding Reactivity (% WT): 151 % WT
N38A
  Binding Reactivity (% WT): 22.4 % WT
E48A
  Binding Reactivity (% WT): 0.9 % WT

B2: IM173 (antibody, V domains shown)
VH: AVTLDESGGGLQTPGGALSLVCKASGFTFSSYSMFWVRRAPGKGLEWVAGIDSGSTTFYGSAVKGRATISRDNGQSTVRLQLNNLRAEDTATYYCAKDAYGYCGWSGCSADSIDAWGHGTEVIVSS
VL: ALTQPSSVSANPGGTVEITCSGGNNYYGWYQQKSPGSAPVTVIYYNDKRPSDIPSRFSGSKSGSTGTLTITGVQADDEAVYFCGGWDSSGGIFGAGTTLTVL
notes: Detected with anti-human IgG Fc secondary
Claudin 3
  binding result: no binding (tested: log [mAb] about -7.2 M)
P74A
  Binding Reactivity (% WT): 147 % WT
D146A
  Binding Reactivity (% WT): 119 % WT
A153S
  Binding Reactivity (% WT): 113 % WT
Q156A
  Binding Reactivity (% WT): 0.9 % WT
Y67A
  Binding Reactivity (% WT): 28.8 % WT
V152A
  Binding Reactivity (% WT): 58.2 % WT
Q78A
  Binding Reactivity (% WT): 144 % WT
N38A
  Binding Reactivity (% WT): 86 % WT
E48A
  Binding Reactivity (% WT): -0.5 % WT
